Consider twelve molecules from paper PMC7957560, “The Functional Role of Loops and Flanking Sequences of G-Quadruplex Aptamer to the Hemagglutinin of Influenza a Virus”.

The target of series [1] is T1, recombinant hemagglutinin HA1 subunit (rHA, H5) (Influenza A virus A/Vietnam/1203/2004 …, UniProt Q5EP31 17-346). The series is described as follows: BLI; rHA immobilized; apparent KD; BLI at 30 C in sodium-potassium phosphate buffer pH 7.4 ([…]. The following applies: protein: commercial, label: none (rHA), 5'-biotin (vHA BLI). Background: Biolayer interferometry detects binding as a change in optical thickness at a sensor tip.

Series [2] has as its target T1, recombinant hemagglutinin HA1 subunit …. The series can be described thus: BLI; 50 nM control, reference signal; BLI at 30 C in sodium-potassium phosphate buffer pH 7.4 ([…]. The note with it: protein: commercial; label: none (rHA); 5'-biotin (vHA BLI).

For GGGAGGGTGGGTGGG (structured_DNA) [G7nt-A_T_T], in series [1], the Kd was 0.4 ± 0.2 nM. On the same count and under the same terms, the value for GGGTGGGAGGGTGGG (structured_DNA) [G7nt-T_A_T] was 0.6 ± 0.2 nM.

Turning to TTGGGGTTAGGGAGGGCGGGGGTT (structured_DNA) [G7-TTA_A_C], the Kd in series [1] (parallel G4, 86% monomer) is 0.4 ± 0.2 nM. On to TTGGGGTTATTAAGGGAGGGCGGGGGTT (structured_DNA) [G7-TTATTAA_A_C], for which the Kd in series [1] (parallel G4, 77% monomer) was determined as 0.4 ± 0.2 nM. As for TTGGGGTTATTTTGGGAGGGCGGG (structured_DNA) [G7n3t], the Kd in series [1] (parallel G4, 100% monomer) was found to be 0.4 ± 0.2 nM. Turning to GGGTTATTTTGGGAGGGCGGG (structured_DNA) [G7nt], the Kd in series [1] (parallel G4, 74% monomer) was determined as 0.7 ± 0.3 nM. As for GGGAGGGAGGGAGGG (structured_DNA) [G7nt-A_A_A], the Kd in series [1] came to 0.6 ± 0.4 nM. Same read-out and setting: the value for GGGTGGGTGGGAGGG (structured_DNA) [G7nt-T_T_A] was 0.8 ± 0.2 nM. On the same count and under the same terms, the value for GGGTGGGTGGGTGGG (structured_DNA) [G7nt-T_T_T] was 0.7 ± 0.2 nM. Regarding GGGTTATTTTGGGAGGGCGGGGGTT (structured_DNA) [G7n5t], in series [1] (parallel G4, 74% monomer), the Kd was found to be 0.3 ± 0.2 nM. As for CGACGCACCATTTGTTTAATATGTTTTTTAATTCCCCTTGTGGTGCGTCG (ssDNA) [control oligonucleotide], the binding result in series [2] was “no binding”. As for TTGGGGTTATTTTGGGAGGGCGGGGGTT (structured_DNA) [RHA0385], the Kd in series [1] came out at 0.6 ± 0.3 nM.
